This is an account of results in article PMC5177531 (2016).

Non-standard residues stand in square brackets, D forms with d. No end group written: not given here. *: point of attachment. NMeF = CN[C@@H](Cc1ccccc1)C(=O)O; NHCH2CH2OH = OCCN* Where only a bound is given, the exact number is not on record here.

In the test the target is T1, mDOR-1 (Mus musculus, UniProt P32300).
T1 chain: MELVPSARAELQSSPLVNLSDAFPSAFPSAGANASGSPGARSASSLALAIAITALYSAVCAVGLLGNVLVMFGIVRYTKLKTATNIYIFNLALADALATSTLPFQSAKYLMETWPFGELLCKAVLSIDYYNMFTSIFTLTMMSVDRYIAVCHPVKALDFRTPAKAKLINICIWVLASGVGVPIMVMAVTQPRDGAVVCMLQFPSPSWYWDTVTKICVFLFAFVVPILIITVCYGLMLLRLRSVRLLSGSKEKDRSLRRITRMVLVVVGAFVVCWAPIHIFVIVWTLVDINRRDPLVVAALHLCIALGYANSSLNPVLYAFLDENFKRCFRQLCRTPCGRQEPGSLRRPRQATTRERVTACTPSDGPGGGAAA
The test can be described thus: 125I-IBNtxA competition, CHO membranes.

A word on the Ki: it is the equilibrium dissociation constant of an inhibitor or competing ligand from its target.

Turning to Y[dA]G[NMeF][NHCH2CH2OH] [DAMGO], the Ki was greater than 500 nM.
